Publication PMC5531264
Like-named read-outs stand apart in the source and are kept apart here.

What was measured:
Assay in all cases: fluorescence anisotropy
[1] = biological target: T1, SAMHD1 C-terminal peptide (human, UniProt Q9Y3Z3 583-626)
T1 chain: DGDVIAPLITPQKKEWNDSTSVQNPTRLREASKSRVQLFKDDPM

SAMHD1 RR = SAMHD1 RR (human, UniProt Q9Y3Z3 1-626, R371E;R372E)
SAMHD1 RK = SAMHD1 RK (human, UniProt Q9Y3Z3 1-626, R333E;K336E)
SAMHD1 RKRR = SAMHD1 RKRR (human, UniProt Q9Y3Z3 1-626, R333E;K336E;R371E;R372E)
SAMHD1 wild-type [2] = biological target: T2, SAMHD1 wild-type (human, UniProt Q9Y3Z3 1-626)
SAMHD1 wild-type [3] = biological target: T2, SAMHD1 wild-type; remark: listed apart in the source

B1: FAM-dT60 (ssDNA)
DNA: TTTTTTTTTTTTTTTTTTTTTTTTTTTTTTTTTTTTTTTTTTTTTTTTTTTTTTTTTTTT
[1]
  Kd: 54 ± 5 µM
SAMHD1 RR
  apparent K (half saturation): 15 ± 1 µM
SAMHD1 RK
  apparent K (half saturation): 7.6 ± 0.4 µM
SAMHD1 RKRR
  apparent K (half saturation): 30 ± 2 µM
SAMHD1 wild-type [2]
  apparent K (half saturation): 700 ± 100 nM
SAMHD1 wild-type [3]
  apparent K (half saturation): 500 ± 100 nM
